For the experiment, the target named is T1, recombinant ectodomain of human IFN-λ receptor 1 (hIFN-λR1) (human, UniProt Q8IU57 21-228).
T1 construct: for the receptor neither is said; also called IFNLR1; source: recombinant; plasmids transfected into Expi293-F cells; purification of the receptor not described
T1 sequence (looked up): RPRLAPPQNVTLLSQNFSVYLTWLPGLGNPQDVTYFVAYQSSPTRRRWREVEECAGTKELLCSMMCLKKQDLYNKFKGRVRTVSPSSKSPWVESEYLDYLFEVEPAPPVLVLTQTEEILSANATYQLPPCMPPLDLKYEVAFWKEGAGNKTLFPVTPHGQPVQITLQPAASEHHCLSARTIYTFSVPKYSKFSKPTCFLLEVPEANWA
Kind of experiment: SPR; Biacore T200; His-tagged hIFN-λ3-WT or hIFN-λ3-DE1 immobilised on a Series S NTA chip to about 200 RU; analyte hIFN-λR1 ectodomain at 6.25, 12.5 and 25 nM, 60 s at 10 µL/min, 120 s dissociation; 1X PBS-P+ with 50 nM EDTA; global fit to a 1:1 model. Particulars: both partners purified.

B1: wild-type human interferon-λ3 (hIFN-λ3-WT), His-tagged (ligand, UniProt Q8IZI9 22-196, looked up)
chain: VPVARLRGALPDARGCHIAQFKSLSPQELQAFKRAKDALEESLLLKDCKCRSRLFPRTWDLRQLQVRERPVALEAELALTLKVLEATADTDPALGDVLDQPLHTLHHILSQLRACIQPQPTAGPRTRGRLHHWLHRLQEAPKKESPGCLEASVTFNLFRLLTRDLNCVASGDLCV
notes: human IFN-λ3, full-length cDNA in a modified pcDNA3.1 with a TEV site and C-terminal 6xHis tag; also called wild-type hIFN-λ3; source: Expi293-F cells, transfected, from the culture supernatant, purified (Ni-NTA, SEC); not shown: His6, C-terminal, kept
On to B1, for which the binding result was “binds”.

Values taken from publication PMC12866752, “Computational Design and Glycoengineering of Interferon‐Lambda for Nasal Prophylaxis Against Respiratory Viruses” (Advanced Science, 2025).
